# According to the supplement of paper PMC12042874:
# ± gives the uncertainty stated by the source.
# Test: amyloid nucleation score (Sup35N fusion, yeast selection) (log enrichment); library NNK1; higher = more nucleation; inactive = no reads after selection
# How it was run: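 Libraries of peptides of 20 random codons fused to Sup35N were expressed in psi-negative yeast and induced 24 hours with 100 μM copper sulfate. Selection was 7 days at 30°C on medium lacking adenine and uracil, and plasmid inserts were Illumina-sequenced before and after selection. Nucleation score is the DiMSum log enrichment of output over input reads, centred on the mode score of non-aggregating sequences, and sequences with under 100 input reads were left out.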
row,Substance,amyloid nucleation score
1,LHLNLLAQDHLCREMTAAMS,-0.771 ± 1.7
2,LHLVTYFVTYVLYSFSISAS,-0.268 ± 0.7
3,LHLWCLQSFYMCWKCPPILE,2.57 ± 0.26
4,LHNYLLCTRVNRIDVLRMTL,-0.854 ± 0.37
5,LHPVLALPAFNVDRNSMPC,-0.335 ± 0.52
6,LHRIVTVNIP,1.23 ± 0.8
7,LHRSRFHDNTTSNGLLKGTV,-0.574 ± 0.6
8,LHRYNYLVYRSTKCMFGVLI,0.222 ± 0.52
9,LHSIDVDIDVEFLSTHRDGP,inactive
10,LHTKVV,0.431 ± 0.77
11,LHTRGLEMFRIGPSCCKWPL,1.49 ± 0.68
12,LIALLLAWDMYI,0.18 ± 0.32
13,LIEDHVLYHVRAKKYRSHYI,-0.381 ± 0.79
14,LIFSNNWFYYTFYDS,5.85 ± 0.087
15,LIFVKDVTLVMHGEERYRRS,5.508 ± 0.049
16,LIHSRKVLSSMTYIEGPLTS,0.166 ± 0.34
17,LIISFVIVSRMLSVRFSTIV,0.262 ± 0.61
18,LIKLLRVKRMYASYLFSNKV,-1.33 ± 1.6
19,LILCCPYNFNLVLMCCPKVG,7.268 ± 0.049
20,LILEHNFWVRISYELVPCFW,1.15 ± 0.3
21,LILFVGIYTLHYYGFNRRYS,0.272 ± 0.69
22,LILILNGMRNWSLAEDGACS,0.326 ± 0.85

row,Substance,amyloid nucleation score
1,LISFEHEFKRCHCALVTWT,-0.048 ± 0.3
2,LISLRVHYAASLFFFPVDDF,0.998 ± 0.93
3,LISNRPMW,0.29 ± 0.48
4,LIVVVTLSGEHRFSVMVYRN,-0.001 ± 0.64
5,LIYPGIVDFVFSDARQGCSR,1.08 ± 0.69
6,LKCLFLIAIFYIINCCSNLS,inactive
7,LKCRLLVQTQLSESRGMWTS,0.316 ± 0.7
8,LKIEPRC,-0.512 ± 0.4
9,LKRMFFSNVLFFGSMIAGNR,0.162 ± 0.59
10,LKTWVDFRDYLLAPKAVCIY,0.161 ± 0.57
11,LKVERMTRKPHGVELLSFRR,-0.163 ± 0.97
12,LKVLYLRSDRVSWVSKPLVI,-0.405 ± 0.87
13,LKVPCL,-0.067 ± 0.59
14,LKYCYGTT,0.171 ± 0.29
15,LLAVAGPLLWLYRYMISFIS,0.071 ± 0.97
16,LLCYCVAELLDNTRRAT,0.328 ± 0.57
17,LLDARWRTYSFRVAMLWGRR,inactive
18,LLDKTTVKVILCLFNDTINL,7.855 ± 0.043
19,LLEALQNLGRLLITTPLVV,0.475 ± 0.84
20,LLFCQNDSGVVRLMLTVFLR,-0.791 ± 1.2
21,LLFLYSLNLSRHLY,0.71 ± 1.1
22,LLGMRFSVVPSPATFGWTHF,1.81 ± 0.18

row,Substance,amyloid nucleation score
1,LLHCKVICRRCCVIWSSCSI,2.09 ± 0.46
2,LLICADVITFCFECTMRTGF,4.13 ± 0.064
3,LLIDSPCNWCTRGRSCKFSY,inactive
4,LLIRLLGQ,inactive
5,LLISDAVVYLFWTPENHSTW,1.2 ± 0.56
6,LLIWRN,0.995 ± 0.62
7,LLLFFNYNLSVIWWVYGRKS,1.23 ± 0.47
8,LLLLAIIDRYSIWK,-0.183 ± 0.41
9,LLLLVRFYGSGSPHSGAEPI,-1.14 ± 1.5
10,LLLSSLTDFHVVDRLIKQAW,-0.003 ± 0.41
11,LLNMCNNESTLERNPF,1.93 ± 0.37
12,LLNRSALCWMCCTKDSWLLT,7.073 ± 0.061
13,LLPLLSMGRTPLRCKPMASS,0.058 ± 0.3
14,LLQGCNEVPVRKSKVVSSVR,0.441 ± 0.24
15,LLRVVKHCLCWNRYNDSDAG,1.05 ± 0.34
16,LLRWLRTVVSGGCVSVNLVE,0.034 ± 0.28
17,LLSATFLLMSTCY,0.34 ± 0.29
18,LLSGNGQRLSSEQTCRELVG,-0.727 ± 0.28
19,LLSHQVTPSGRYSFSLCKSW,0.873 ± 0.84
20,LLSPFCVVLGSSTTGTMVNM,0.287 ± 0.62
21,LLWNDCGFLRWASGH,2.59 ± 0.11
22,LMDNCVRR,-1.06 ± 1.9

row,Substance,amyloid nucleation score
1,LMEFHLYQMYSLRLVARRWW,1.32 ± 0.38
2,LMFAISKIKIF,inactive
3,LMKCCNVMGCGDDA,2.45 ± 0.15
4,LMLERFRLLYNEDFGGKVMF,0.448 ± 0.47
5,LMLPFVYS,0.392 ± 0.37
6,LMLVHRVF,-0.034 ± 0.51
7,LMNICRNVARG,-0.876 ± 0.71
8,LMPPSG,0.072 ± 0.69
9,LMSYSECQLSLNAYRGGRVE,0.373 ± 0.55
10,LMWCGSANMY,0.632 ± 1.2
11,LNALFYLKWALRRWSRKYCE,1.39 ± 0.79
12,LNCCYKKNVGIQDMRTMDIQ,0.247 ± 1.1
13,LNFDNFLLMWTMLVNRIISD,0.574 ± 0.97
14,LNLLYASWYYSFGVR,-0.194 ± 0.24
15,LNMLMMVGVWGYFVITIHTI,0.68 ± 0.71
16,LNNTVEDPA,0.892 ± 0.92
17,LNRVFEDHWVLTLAVLHTSR,inactive
18,LNSSIYDLSHTVAGCHPALT,-0.293 ± 1.3
19,LNVGV,-0.215 ± 1.7
